According to the nanobody polyreactivity screen of Harvey et al. (2022):

Assay: yeast display, Sf9 membrane polyspecificity reagent, FACS + sequencing; frameworks hold sequencing errors
Outline: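 Sorting gates, low and high (top ~1%), were placed on anti-HA fluorescence to track expression and on streptavidin fluorescence to track reagent binding. A clone's polyreactivity label is taken from the gate it came out of. The reagent was 10% biotinylated, detergent-solubilized Sf9 membrane, applied for 1 hour at 4 °C to galactose-induced yeast display cells.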

Sequence	polyreactivity (PSR sort gate)
QVQLVESGGGLVQAGGSLRLSCAASGFTFKYYVMGWYRQAPGKAREWVAAITNGGSTYYADSVKGRFTISRDNAKNTVYLQMNSLKPEDTAVYYCAASAYYHWLFDYRGQGTQVTVSS	high polyreactivity
QVQLVETGGGLVQAGGSLRLSCAASGRTFYYNGRGWYRQAPGKERELVAAITSGGTTSYADSVKGRFTISRDNAKNTVYLQMNSLKPEETAVYYCNADYWAVNYDYWGQGTQVTVSS	low polyreactivity
QVQLVESGGGLVQAGGSLRLSCAASGRTFNYNTMGWYRQAPGKERELVAAINKGGTRTYYADSVKGRFTISRDNAKNTVYLQMKSLNPEDTAVYYCAARIGGGSYWGQVTQVTVSS	high polyreactivity
QVQLVESGGGLVQAGGSLRLSCAASGSTFPLNAMGWYRQAPGKESEFLDAISYRGSSTYYADSVKGRFTISRDNAKNTVYLQMNSLKPEDTAVYYCSANPNTYYYRRGYDYWGQGTQVTVSS	high polyreactivity
QVQLVESGGGLVQAGGSLRLSCAASGFIFYNYALGWYRQAPGKERELVAAISASGGRSYYADSVKGRFTISRDNAKNTVYLQMNRLKPEDTAVYYCNARVNYKGYDYWGQGTQVTVSS	high polyreactivity
QVQRVESGGGLVQAGGRLRLSCAASGRTFDNYAMGWYIQAPGKERELVSAISGGGGTNYADSVKGRFTISPDNAKNTVYLQMNSLKPEDTAVYYCAADTNGYEFDYWGQGTQVTVSS	low polyreactivity
QVQLVESGGGLVQAGGSLRLSSAASGGTFGGYTRRWSRQAPGKERELVAAITRRGSSTFYADSVKGRFTISRDNAKKTVYLQMNSLKPEDTAVYYCAARYIVYLRTQSERYNSYDYWAQGTQVTVSS	high polyreactivity
QVQLVESGGGLVQAGGSLRLRCAASGRIRYYGIGCYRQAPGKERELVAAITWRAGRTYYADSVKGRFTISRDNANITVYLHMNSLKPEDSAVYYCAAAIYSRSFRVDYWGQGTQVSVSS	high polyreactivity
QVQLVESGGGLVQAGGSLRLSCAASGSIFSTYAMGWYRQAPGKERELVAAISSSGSTYYADSVKGRFTLSRDNAKNTVYLQMNSLKPEDTAVYYCAAGKYRRTSRYRYDSWGQGTQVTVSS	high polyreactivity
QVQLVESGGGLVQAGGSLRLSCAASGSIIGYYAMGWYRQAPGKERELVAAISRTGGSTYYADSVKGRFTISRDNAKNTVFLPMNSLKPEDTAVYYCATRTYARHDYWGQGTQGTVSS	high polyreactivity
QVQLVESGGGLVQAGGSLRLSCAASGFIFRLYALGWYRQAPGKERELVAAIRSAGSTYYADSVKGRFTISRDNAKNTVYLQMNSLKPEDTPVYYCAARSGHTYYFIGNYWGQGTQVTVSS	high polyreactivity
QVQLVESGGGLVQAGGSLRLICAASGFIFGNYAMGWYRQAPGKERELVATITWRGGSTYYADSVKGRFTISRDNAKNTVYLQMNSLKPEDTAVYYCARPYASYRSFYYYGYWGQGTQVTVSS	high polyreactivity
QVQLVESGGGLVQAGGSLRFSCAASGITFTEYAMGWYTQAPGTERELVAAITGSGTSTYYADSVKGRFTISRDNAKNTVYLHMNSLKPEDTAVYYCAARTRGTAYNYWGQGTQVTVSS	high polyreactivity
QVQLVESGGGLVQAGGSLRLTCAASASIFGHNTMGWNREAPGKERELVAAISVSGTRTYYADSVKGRFTISRVNAKNTVYLQMNSLKPEDTAVYYCAAEISRVRQGVAWSYKYEYWGQGTQVTVSS	high polyreactivity
QVQLVESGGGLVQAGGSLRLSSAASGRTFYFYAMGWYRQAPGKERELVADIRGITGSTYYADSVKGRFTISRDNAKNTVYLQMNSLKPEDTAVYYCNAYPYIARAPYEYWGQGTQVTVSS	high polyreactivity
QVQLVESGGGLVQAGGSLRLSCAASGRTFSAYAMGWYRQAPGKERELVAAISRRGGSTYYADSVKGRFTISRDNAKNTVYLQMNSLKPEDTAVYYCAADVYKQYGYYYWGQGTQVTVSS	high polyreactivity
QVQLVESGGGLVQAGRSHRLSCAASGFTFAPNAMGWYRQAPGKERELVARIDRAGSTYYADSVKGRFTISRDNAKNTVYLQMNSLKPEVTAVYYCAVVAVLSRPYATKFDYWGQGTQVTVSS	low polyreactivity
QVQLVESGGGLVQAGGSLRLSCAATGSTFDPNVMGWYRQAPGKEREFVAAISSRSGSTSYADSVKGRFTISRDNAKNTVYLQMNCLKPEVTAVYYCAARVYGLPLRMYSWGQGTQVTLSS	high polyreactivity
QVQLVESVVGLVQAGGSLRLSCAASGFIFVVYAMGWYRQAPGKERELVAAITNGGITYYADSVKGRFTISRDNAKNTVYLQMNSLKPEDTAVYYCNAQYTDYDGYVGYYYWGQGTQVTVSS	low polyreactivity
QVQLVESGGGLVQAGGSLRLSCAASGSIFGYYAMGGYRQAPGKERELVAAISVNGGRTYYADSVKGRFTISRDNAKNTVYLQMNSLKPEDTAVYYCAAELVDYITFRGDYYYWGQGTQVTVSS	high polyreactivity
QVQLVESGGGLVQAGGSLRLSCAASGITIDVYGMGWYRQAPGKERELVASIRRRGGSTYYADSVKGRFTISRDNAKNTVYLQMNSLKPEDTAVYYCAAVPSDGHRIWSWDPYPEYDYWGQGTQVTVSS	low polyreactivity
QVQLVESGGGLVHAGGSLRLSCAASGGNFGKYAMGGYRQAPGKERELVAAITWNGGRTYYADSVKGRFTLSRDNAKNTVYLQMNSLKPEDSAVNYCNARNSHRYVYWGQGTQVTVSS	high polyreactivity

Sequence	polyreactivity (PSR sort gate)
QVQLVESGGGLVQAGGSLRLSCAASGSTFVWYAMGWYRQAPGKEREFVATISWSDGSTYYADSVKGRFTISRDNAKNTVYLQMNSLKPEDTAVYYCASDVDRFFTYKYDYWGQGTQVTVSS	low polyreactivity
QVQLVESGGGLVQAGGSLRLSCAASGSTYSYYVMGWYRQAPGKERELVAAISRSGGRTYYADSVKGRFTISRDNAKNTVYLQMNSLKPEDTAVNYCAAREFDHPPYDYWGQGTQVTVSS	high polyreactivity
QVQLVESGGGLVQAGGSLRLSCAASGSIFYVNAMGWYRQAPGKERELVAAISVRGGRTYYADSVKGRFTISRDNAKNTVYLQMNSLKPEDTAVYYCATRISTVGRYDYWGQGTQVTVSS	high polyreactivity
QVQLVESGGGLVQAGGPLRLSCAASGRIVWNAMGWYRQAPGKEREFVASITWSVGSTYYADSVKGRFTISRDNAKNTVYLQMNSLKPEDTAVYYCAADSYSGYYYWGQGTQVTVSS	high polyreactivity
QVQLVESGGGLVQAGGSLRLSCAASGNIFDRYVMGWYRQAPGKERELVAAISVSGGSTYYADSVKGRFTISRDNAKNTVFLQMNSLKPEDTAVYYCAAHSRLINWYDYWGQGTQVTVSS	high polyreactivity
QVQLVESGGGLVQAGGSLRLSCAASGSTFYYYAMGWYRQAPGKERELVAAISASGDSTYYADSVKGRFTISRDNAKNTVYLQMNSLKPEDTAVYYCAAQYYFYPHEFDYWGQGTQVTVSS	low polyreactivity
QVQLQERGDGLGQAVGSLRLSCAASGYISGYYYLGWYRQAPGKEGVVVAGIDAFGSRTNFADCVKGRFTISRDNAKNPVDLQMNSLKPEETAVYYCAARPDGDRLFSYWGQGPQVTVSS	low polyreactivity
QVQLVESGGGLVQAGGSLRLTCAASGRTFAINVMGWYIQAPGKERELVASIRGRGGRTNYADSVKGRFTISRDNAKNTVYLQMNRLKPEDTAVYYCAASQWWRYDYWGQGTQVTVSS	high polyreactivity
QVQLVESGGGLVQAGGSLRLSCAASGRIFWDYAMGWYRQAPGKERELVAGISYSGGSTSYADSVKGRFTISRDNAKNTVYLQMNSLKPEDTAVYYCAARPSGTFFRDYDYWGQGTQVTVSS	low polyreactivity
QVQLVESGGGLVQAGGSLRLSCAASGLIFIIYTRGWSRQAPGKERELVAAITRRGGITYYADSVKGRFTISRDNAKNTVYLQMNSLKPEDTAVYYCAVVRPYNIWYDYWGQGTQVTVSS	low polyreactivity
QVQLEDSGGGLVQAGVSLRLSSDASGSTIAGYVMGWYRQAPGKERELVAAISRSGGSTYYADSVKGRFTISRDNEKNTVYLQMNSLKPEDTAVYYCASRNSPGFPGDYWGQGSQVTVSS	high polyreactivity
QVHLVESGGGLFQAGGSLRLSCAPSGSITGYYAMGWYRQAPGKERDLVASIRNTGARTYYADSVKGRFTISRDNAKKTVYIQKNSLKAEDTAVYYCAADVKRDRVRGGDDWGQGTQVTVSS	low polyreactivity
QVQLVESGGGLVQAGGSLRFSCAAPGTIFPRYAMGWYRQAPGKERELVAAISRSGGSTYYADSVKGRFTISRDNAKNTVYLQMNSLKPEDTAVYYCATDKVSHRRYDYWGQGTQVTVSS	high polyreactivity
QVQLVESGGGLVQAGGSLRISCAASGFIFYSYPMGWYRQAPGKERELVAAISTSGGSTYYADSVKGRFTISRDNAKNTVYLQMNSLKPEDTAVYYCAVGRKFGRYRVPFVVPYEYWGHGTQVTVSS	high polyreactivity
QVQLVESGGGLVQAGGSLRLSCAASGFTFWGNAMGWYRQAPGKEREMVAAITDTGSTNYADSVKGRCTISRDNAKNTVYLQMNSLKPEDTAVYYCAKDKAYYDWGQTNGYWGQGTQVTVSS	low polyreactivity
QVQLVESGGGLVQAGGSLRLSCAASGRIFGGYTMGWYRQAPGKERELVAAITGSGGRTYYADSVKGRFTISRDKAKNTVYLQMNSLKPDETAVYYCNTVYRYRYYWGQGTQVTVSS	high polyreactivity
QVQLVESGGGLVQAGGSLRLSCAASGLTFPSYAMGWYRQAPGKERELVAVISSSGGRTYYADSVKGRFTISRDNAKNTVYLQMNSLIPEDTAVYYCNVGGFLRRRSYDYWGQGTQVTVSS	high polyreactivity
QVQLVESGGGLLQAGGSLSLSCAASGFTFIGYAMGWYRQATGKEREFVAAISWSGGRTYYADSVKGRFTISRDNAKNTVYLQMNSLKPEDTAVYYCAARGSRKPDWGLGYWGQGTQVTVSS	high polyreactivity
QVQLVESGVCLVQAGGSLRLSCAASGSTYTYAMGWYRQAPGKERELVADITQSGGSTYYADSVKGRFTISRDNAKKTVYLQMNTLKPEDTAVYYCNAESRHVFEDEYWGQGTQVTVSS	low polyreactivity
QVQLVESGGGLVQAGGSLRLSCAASGRIFYVYAMGWYRQAPGKERELVATIDWSGGSTYYADSVKGRFTISRDNAKITVYLQMNSLKPEDTAVYYCAAYYTSYWGYDYDYWGQGTQVTVSS	low polyreactivity
QVQLVESGGGLVQAGGSLRLSCAASGRIFYGYAMGWYRQAPGKEWELVAAITDSGGITYYADSVKGRFTISRDNAKKTVYLQLNSLKPEDTAVYYCTALVRDPAWLSRVGYSGDYWGQGTQVTVSS	high polyreactivity
